These are literature values, as cited in publication PMC7150914.

Data set [1] deals with PSP94 (β-microseminoprotein) (Homo sapiens) (UniProt P08118).
Data set [2] has as its target α-1B glycoprotein (Homo sapiens) (UniProt P04217).
The target of the next data set is CNGA1 (Bos taurus) (UniProt Q00194).
The target of data set [3] is CNGA2 (Rattus norvegicus) (UniProt Q00195).
Chain of UniProt Q00195 (Q00195 whole entry): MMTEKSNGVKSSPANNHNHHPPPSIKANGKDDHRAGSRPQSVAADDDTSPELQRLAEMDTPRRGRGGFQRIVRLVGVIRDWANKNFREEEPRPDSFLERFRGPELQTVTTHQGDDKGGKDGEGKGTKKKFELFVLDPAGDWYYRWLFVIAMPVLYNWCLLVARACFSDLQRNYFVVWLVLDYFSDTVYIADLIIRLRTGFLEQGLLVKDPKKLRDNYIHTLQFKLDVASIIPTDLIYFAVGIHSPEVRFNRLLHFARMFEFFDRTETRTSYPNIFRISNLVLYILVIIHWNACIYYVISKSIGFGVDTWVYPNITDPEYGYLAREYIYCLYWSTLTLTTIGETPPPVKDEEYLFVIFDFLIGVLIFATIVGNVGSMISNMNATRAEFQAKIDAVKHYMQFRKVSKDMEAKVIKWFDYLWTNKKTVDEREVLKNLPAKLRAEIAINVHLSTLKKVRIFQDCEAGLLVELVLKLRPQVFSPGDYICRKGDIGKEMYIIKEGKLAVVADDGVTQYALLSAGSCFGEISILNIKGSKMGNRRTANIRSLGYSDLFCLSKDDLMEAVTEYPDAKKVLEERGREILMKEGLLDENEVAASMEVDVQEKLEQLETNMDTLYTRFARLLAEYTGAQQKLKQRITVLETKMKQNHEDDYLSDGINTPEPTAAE

Chain of UniProt Q00194 (Q00194 whole entry): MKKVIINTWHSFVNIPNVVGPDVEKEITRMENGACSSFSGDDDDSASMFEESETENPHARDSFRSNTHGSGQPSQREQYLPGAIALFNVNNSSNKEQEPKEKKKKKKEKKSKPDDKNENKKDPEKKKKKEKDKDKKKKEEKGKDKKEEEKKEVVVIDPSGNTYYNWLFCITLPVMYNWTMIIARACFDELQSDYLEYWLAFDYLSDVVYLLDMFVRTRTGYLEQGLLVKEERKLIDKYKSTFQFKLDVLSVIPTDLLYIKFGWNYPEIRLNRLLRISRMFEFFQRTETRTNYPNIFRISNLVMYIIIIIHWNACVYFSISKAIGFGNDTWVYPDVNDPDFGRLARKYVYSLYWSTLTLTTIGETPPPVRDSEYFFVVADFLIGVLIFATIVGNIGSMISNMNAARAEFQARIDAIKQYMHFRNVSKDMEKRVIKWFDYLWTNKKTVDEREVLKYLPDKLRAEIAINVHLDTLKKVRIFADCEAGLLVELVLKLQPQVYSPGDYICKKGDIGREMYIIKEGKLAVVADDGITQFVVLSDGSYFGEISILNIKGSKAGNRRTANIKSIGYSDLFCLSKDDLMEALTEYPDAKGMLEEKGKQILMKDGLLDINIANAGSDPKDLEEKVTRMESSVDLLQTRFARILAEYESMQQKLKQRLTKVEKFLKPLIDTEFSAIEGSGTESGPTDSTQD
Chain of UniProt P04217 (P04217 22-495): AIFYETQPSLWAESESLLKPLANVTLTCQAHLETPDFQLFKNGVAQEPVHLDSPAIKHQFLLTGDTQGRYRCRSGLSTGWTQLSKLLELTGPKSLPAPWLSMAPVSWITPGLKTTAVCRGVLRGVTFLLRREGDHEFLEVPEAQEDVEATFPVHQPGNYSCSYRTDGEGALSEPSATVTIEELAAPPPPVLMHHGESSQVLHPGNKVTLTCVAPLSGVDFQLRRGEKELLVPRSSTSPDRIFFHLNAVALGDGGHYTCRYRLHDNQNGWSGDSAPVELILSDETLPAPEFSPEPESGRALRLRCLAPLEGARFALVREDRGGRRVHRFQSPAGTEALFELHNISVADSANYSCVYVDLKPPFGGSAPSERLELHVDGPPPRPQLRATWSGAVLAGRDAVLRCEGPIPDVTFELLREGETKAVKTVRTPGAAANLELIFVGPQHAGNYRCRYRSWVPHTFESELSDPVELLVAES
Chain of UniProt P08118 (P08118 21-114): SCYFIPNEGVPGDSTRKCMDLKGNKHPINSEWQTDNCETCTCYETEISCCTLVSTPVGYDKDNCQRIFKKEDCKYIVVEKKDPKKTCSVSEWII

Take CRISP-3 (from UniProt P54108): the dissociation constant Kd – broadly, a measure of binding affinity in units of concentration – is 0.0628 nM in data set [1] and 2.8 nM in data set [2].
On to “Pseudechetoxin (PsTx) (from UniProt Q8AVA4)”, for which the results for the inhibitory constant (Ki) (with CNGA1 (Bos taurus); in data set [3]) were 70 nM and 15 nM, respectively.
